{"source": "patent US9809653B2", "about": "“Anti-LAMP1 antibodies and antibody drug conjugates, and uses thereof” (SANOFI, priority 2012, dated 2017)", "molecules": {"B1": {"name": "MAb4: mouse monoclonal anti-LAMP1 antibody from hybridoma 88LAMP1-2, VH SEQ ID NO: 88, VL SEQ ID NO: 89 (antibody, listed as Mus musculus, V domains shown)", "VH": "QVQLQQSGAELVRPGTSVKVSCKASGYAFTNYLIEWVKQRPGQGLEWIGVINPGSGGTNYNEKFKGKATLTADKSSSTAYMQLSSLTSDDSAVYFCARYRSYDWYFDVWGAGTTVTVSS", "VL": "DIQMTQSPASLSASVGETVTITCRVSGNIHNYLAWYQQKQGKSPQLLVYNAKTLADGVPSRFSGSGSGTQYSLKINSLQPEDFGSYYCQHFWSNPYTFGGGTKLEIK"}}, "key": {"[1]": {"conditions": "cited from earlier work"}, "Colo205 cells": {"tested_on": "Colo205 cells", "assay": "Quenching of Alexa488 by anti-Alexa488 antibody, flow cytometry, internalized fraction", "type": "cell-based, human", "protocol": "Quantification of internalization can also be performed by fluorescence-based quenching methods. In particular, a fluorescence-based Alexa488-quenching method has been described to analyze internalisation of targeting agents (Frejd et al. 2010, International Journal of Oncology, 36: 757-763). According to said description, internalization is calculated as the Mean fluorescence intensity (MFI) value of quenched cells (intracellular compartments only) divided by the MFI value of unquenched cells (both cell surface and intracellular compartments) at 37° C., according to the following formula: […]\nThe cells were washed twice in ice cold PBS in a cold centrifuge, and resuspended in 500 nM quenching anti-Alexa488 antibody diluted in ice cold PBS. All tubes were incubated for 1 h on ice. Without washing, all cells were fixed in two volumes of 2% paraformaldehyde for 10 min at room temperature. The paraformaldehyde was removed by one wash in PBS, and the cells were resuspended in PBS and analyzed in a flow cytometer (Guava® easyCyte 8HT Flow Cytometry System).\nAn internalization positive control experiment was done in parallel with Alexa488-labelled Transferrin (600 nM).\nMean fluorescence intensity (MFI) values obtained from the flow cytometry reading of 5×10^4 cells per tube were used for all calculations. Internalization was calculated as the MFI value of quenched cells (intracellular compartments only) divided by the MFI value of unquenched cells (both cell surface and intracellular compartments) at 37° C. as described in the formula: […]"}, "[2]": {"target": "T1, patient-derived xenografts from colon, lung and breast origin and tumor cell lines (Homo sapiens, UniProt P11279)", "T1 construct": "endogenous in cells; host or cells: enzymatically dissociated patient-derived xenograft tumour cells (e.g. CR-IGR-034P, LUN-NIC-014P, BRE-IGR-0159) and tumour cell lines", "T1 sequence (P11279 29-417)": "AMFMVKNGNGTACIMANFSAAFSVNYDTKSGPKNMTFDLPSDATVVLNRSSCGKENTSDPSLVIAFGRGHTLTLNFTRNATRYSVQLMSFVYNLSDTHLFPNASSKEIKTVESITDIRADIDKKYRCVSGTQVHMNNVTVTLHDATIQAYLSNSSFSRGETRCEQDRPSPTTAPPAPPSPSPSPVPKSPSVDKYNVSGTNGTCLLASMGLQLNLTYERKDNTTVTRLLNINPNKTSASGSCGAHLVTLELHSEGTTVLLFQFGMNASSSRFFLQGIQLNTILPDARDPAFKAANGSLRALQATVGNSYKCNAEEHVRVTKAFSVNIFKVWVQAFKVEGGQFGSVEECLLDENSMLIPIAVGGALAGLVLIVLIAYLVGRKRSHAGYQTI", "assay": "Binding to patient-derived xenograft tumor cells by flow cytometry (mean fluorescence)", "conditions": "for Mean Florescence Intensity (MFI): FACS", "protocol": "Advanced human primary tumors from colon (CR-IGR-034P), lung (LUN-NIC-014P and breast (BRE-IGR-0159) indications were obtained from patient-derived xenograft (PDX) in mice as described in example 1. PDXs were enzymatically dissociated using collagenase Type IV (Invitrogen; #17104-019) and deoxyribonuclease I (Invitrogen, #18047-019) for 1 h at 4° C. Cell viability was estimated by Viacount application using Guava® easyCyte™ 8HT Flow Cytometry System. Tumoral cells were coated at 40,000 cells/well on 96-well High Bind plate (MSD L15XB-3) and 100 μL of antibody was added at 20 μg/mL for 45 min at 4° C. and washed three times with PBS 1% BSA. 100 μL of goat anti-human IgG conjugated with Alexa488 (Invitrogen; #A11013) was added for 45 min at 4° C. and washed three times with PBS 1% BSA. The antibody binding was evaluated after centrifugation and resuspension of cells by adding 200 μL/well PBS 1% BSA and read using Guava® easyCyte™ 8HT Flow Cytometry System. The mean fluorescence was recorded and plotted in the graph shown in FIG. 12 to illustrate the expression profile of the three mAbs onto the three PDXs.\n(§1) The panel of tumor cells comprises Patient-derived tumor xenografts from different origins and tumor cell lines."}, "[3]": {"target": "T2, cell surface LAMP1 on Patient-derived tumor xenografts and tumor cell lines (Homo sapiens, UniProt P11279)", "T2 construct": "endogenous in cells; host or cells: enzymatically dissociated patient-derived xenograft tumour cells (e.g. CR-IGR-034P, LUN-NIC-014P, BRE-IGR-0159) and tumour cell lines", "T2 sequence (P11279 29-417)": "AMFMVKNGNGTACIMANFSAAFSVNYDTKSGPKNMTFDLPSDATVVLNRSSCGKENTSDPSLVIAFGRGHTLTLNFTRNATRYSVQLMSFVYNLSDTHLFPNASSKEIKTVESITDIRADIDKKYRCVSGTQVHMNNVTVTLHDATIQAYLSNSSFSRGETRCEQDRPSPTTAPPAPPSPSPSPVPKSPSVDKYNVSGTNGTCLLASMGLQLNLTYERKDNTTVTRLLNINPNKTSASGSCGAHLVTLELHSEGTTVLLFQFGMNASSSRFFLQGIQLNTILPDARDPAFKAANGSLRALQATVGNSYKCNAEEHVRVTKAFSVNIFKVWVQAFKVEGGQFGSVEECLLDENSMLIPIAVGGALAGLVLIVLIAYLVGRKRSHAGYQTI", "assay": "Antibody binding capacity (ABC) by FACS on patient-derived xenografts and tumor cell lines", "conditions": "FACS", "protocol": "Antibody binding capacity of antibody was determined using Mouse IgG Calibrator kit (Biocytex #7208) or Human IgG Calibrator Kit (Biocytex #CP010) according to the manufacturer's instructions.\nThe panel of tumor cells comprises Patient-derived tumor xenografts from different origins and tumor cell lines. FIG. 2 illustrates the expression profile and Table 4 summarizes the antibody binding capacity results.\nas §1"}, "recombinant human LAMP2": {"target": "T3, recombinant human LAMP2 (Homo sapiens, UniProt P13473)", "T3 construct": "purchased R&D Systems 6228-LM", "T3 sequence (P13473 with tags, fused parts or gaps)": "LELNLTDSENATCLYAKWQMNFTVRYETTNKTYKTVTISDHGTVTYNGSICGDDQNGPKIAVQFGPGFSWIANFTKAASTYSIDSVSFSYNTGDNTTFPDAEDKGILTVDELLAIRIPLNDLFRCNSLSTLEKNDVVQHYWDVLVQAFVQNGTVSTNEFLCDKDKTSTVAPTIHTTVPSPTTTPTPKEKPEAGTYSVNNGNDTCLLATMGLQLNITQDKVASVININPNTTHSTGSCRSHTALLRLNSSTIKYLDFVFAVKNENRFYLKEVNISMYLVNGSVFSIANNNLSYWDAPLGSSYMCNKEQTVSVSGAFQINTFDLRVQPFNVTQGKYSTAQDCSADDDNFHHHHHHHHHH", "assay": "Specificity ELISA on recombinant human LAMP2", "type": "binding", "protocol": "LAMP2 is the closest member of the LAMP family with 35% sequence identity to LAMP1. […] Anti-LAMP1 antibodies were added to the plates and detected by using rabbit anti-mouse IgG conjugated with horseradish peroxidase (Sigma; #A9044). Antibody binding was visualized by adding TMB-H2O2 buffer and read at a wavelength of 450 nm.\nLAMP2 is the closest member of the LAMP family with 35% sequence identity to LAMP1. Specificity of MAb4 was evaluated by ELISA as described in example 4.6 with either LAMP1 or LAMP2 soluble proteins, as shown in FIG. 41."}, "[4]": {"target": "T4, LAMP1 in FFPE colon adenocarcinoma PDX CR-LRB-010P and human breast carcinoma (Homo sapiens, UniProt P11279)", "T4 construct": "from tissue; host or cells: human tumoral and non-tumoral tissue sections and PDX tumour sections (frozen-OCT, AFA, FFPE)", "T4 sequence (P11279 29-417)": "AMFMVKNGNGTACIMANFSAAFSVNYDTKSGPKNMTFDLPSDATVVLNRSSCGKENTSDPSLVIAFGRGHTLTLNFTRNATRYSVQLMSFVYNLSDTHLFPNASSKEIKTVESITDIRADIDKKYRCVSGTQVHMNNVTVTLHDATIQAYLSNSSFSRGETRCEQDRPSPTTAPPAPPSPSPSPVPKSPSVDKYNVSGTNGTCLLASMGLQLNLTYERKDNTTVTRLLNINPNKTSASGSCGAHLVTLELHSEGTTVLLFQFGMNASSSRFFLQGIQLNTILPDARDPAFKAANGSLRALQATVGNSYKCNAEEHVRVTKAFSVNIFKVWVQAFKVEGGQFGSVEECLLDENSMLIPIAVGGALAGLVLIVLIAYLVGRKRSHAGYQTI", "assay": "IHC on FFPE tumor tissue, LAMP1 membrane reinforcement", "conditions": "FFPE samples", "from_the_text": "IHC analysis of tumor tissues from biobanks or from hospitals before or during patient treatment is routinely done with formalin-fixed paraffin-embedded (FFPE) samples. […] One of the reasons is probably the effect of the formalin fixative combined to the complexity of the protein. Samples processed in frozen OCT or AFA are not routinely prepared in hospitals. Therefore, there is a need to have a mAb that would allow complete and fast coverage of the FFPE tumor biobanks and hospital samples.\nRabbit polyclonal antibodies generated with peptides described in example 17.1.1 were tested by IHC on FFPE sample of colon adenocarcinoma patient derived xenograft CR-LRB-010P and human breast carcinoma. After antigen retrieval procedure and endogen biotins blocking steps, slides were incubated with the primary anti-antibody for 1 hour at 24° C. Negative controls were performed by omission of the primary antibody. The biotin free anti-rabbit UltraMap™ horseradish peroxidase (HRP) conjugate (760-4315, Ventana Medical Systems, Inc, USA) was used as secondary antibody system according to manufacturer's recommendations. A couterstaining step was done with hematoxylin (760-2037, Ventana Medical Systems, Inc, USA) and bluing reagent was applied (760-2037, Ventana Medical Systems, Inc, USA). Stained slides were dehydrated and coverslipped with cytoseal XYL (8312-4, Richard-Allan Scientific, USA).\nAs the same manner as in example 17.1.2, IHC screening was performed with the hybridoma supernatant to identify mouse monoclonal antibody showing LAMP1 membrane reinforcement on FFPE sample of colon adenocarcinoma patient derived xenograft CR-LRB-010P. The biotin free anti-mouse UltraMap™ horseradish peroxidase (HRP) conjugate (760-152, Ventana Medical Systems, Inc, USA) was used as secondary antibody system according to manufacturer's recommendations."}, "[5]": {"conditions": "Colo205, 4 h, 500 nM quenching anti-Alexa488 antibody"}}, "note": "Read-outs that look alike come from different tables or passages of the source.", "data": [{"molecule": "transferrin: transferrin, literature internalization reference", "values": [{"measurement": "IS", "setting": "[1]; cells incubated at 37° C. for one hour", "value": 0.9}, {"measurement": "IS", "setting": "[1]; cells left on ice", "value": 0}]}, {"molecule": "Alexa488-Transferrin: internalization positive control", "values": [{"measurement": "MFI 4° C. Quencher", "setting": "Colo205 cells; [5]", "value": 8.98}, {"measurement": "MFI 37° C. Quencher", "setting": "Colo205 cells; [5]", "value": 1210}, {"measurement": "MFI 4° C.", "setting": "Colo205 cells; Colo205, 4 h, unquenched", "value": 35.78}, {"measurement": "MFI 37° C.", "setting": "Colo205 cells; Colo205, 4 h, unquenched", "value": 1228}, {"measurement": "total cell fluorescence that was intracellular", "setting": "Colo205 cells; Colo205, after 4 h at 37° C.", "value": "about 98.5%"}]}, {"molecule": "B1", "values": [{"measurement": "Mean Florescence Intensity (MFI)", "setting": "[2]; BRE-IGR-0159/breast PDX", "value": 400}, {"measurement": "Mean Florescence Intensity (MFI)", "setting": "[2]; CR-IGR-034P/colorectal PDX", "value": 424}, {"measurement": "Mean Florescence Intensity (MFI)", "setting": "[2]; Colo205/colon cell line", "value": 7}, {"measurement": "Mean Florescence Intensity (MFI)", "setting": "[2]; LUN-NIC-006/lung PDX", "value": 162}, {"measurement": "Mean Florescence Intensity (MFI)", "setting": "[2]; LUN-NIC-033/lung PDX", "value": 154}, {"measurement": "binding to tumor cells by flow cytometry", "setting": "[2]; PDX and tumor cell lines", "value": "able of binding to multiple tumor cells"}, {"measurement": "Antibody Binding Capacity (ABC)", "setting": "[3]; CR-IGR-034P/colorectal PDX", "value": "260 000"}, {"measurement": "Antibody Binding Capacity (ABC)", "setting": "[3]; Colo205/colon cell line", "value": 3000}, {"measurement": "Antibody Binding Capacity (ABC)", "setting": "[3]; LUN-NIC-006/lung PDX", "value": "92 000"}, {"measurement": "Antibody Binding Capacity (ABC)", "setting": "[3]; LUN-NIC-033/lung PDX", "value": "87 000"}, {"measurement": "binding to LAMP2", "setting": "recombinant human LAMP2", "value": "No binding"}, {"measurement": "difference between the EC50 towards LAMP1 versus LAMP2", "setting": "recombinant human LAMP2", "value": "more than 100 fold"}, {"measurement": "LAMP1 membrane reinforcement in FFPE format by IHC", "setting": "[4]", "value": "displayed membrane reinforcement immunostaining"}]}]}
